Patent US12582683B2, “Prostate neoantigens and their uses” (Jansen Biotech, Inc., priority 2019, dated 2026)

How the values were obtained:
[1] = test system: CD8+ T cells in PBMCs from patients with metastatic castrate-resistant prostate cancer; test: Patient PBMC restimulation assay (in vitro immunogenicity of neoantigens); type: cell-based, human; parameters: Maximum frequency of TNFα+IFNγ+CD8+ T cells: unit not given here; settings: for Maximum fold change over: fold change over negative control, highest across the PBMC donors evaluated, 9 mer peptide; for Maximum frequency of TNFα+IFNγ+CD8+ T cells: greatest frequency among all tested PBMC donors, negative control 0.011-0.8
Protocol: In Vitro Immunogenicity Assessment of Neoantigens (“Patient PBMC Restimulation Assay”)
PBMCs from human patients with metastatic castrate-resistant prostate cancer were thawed using media (RPMI 1640 supplemented with Glutamax, 10% HI FBS, and 1× Sodium Pyruvate). Cells were counted and plated in a 96 well round bottom microplate at a concentration of 250,000 viable cells per well. Lyophilized peptides were solubilized in 100% DMSO and diluted in media to 10 μg/mL. Neoantigen peptides were added in equal volume to PBMCs for a final concentration of 5 μg/mL. CEF Peptide Pool “Plus” (Cellular Technologies, Ltd.) was utilized as a positive control and DMSO at the same final concentration as the experimental peptides was utilized as a negative control. Human IL-15 (Peprotech) was added to all wells at final concentration of 10 ng/mL.
Plates were incubated at 37° C. (5% CO2) for a total of 13 days. Media was refreshed every 2 days with IL-15 (10 ng/mL final concentration) and IL-2 (R&D systems, 10 IU/mL final concentration). On day 12, PBMCs were re-stimulated with identical experimental peptides or controls, at same concentration as peptide stimulation on Day 1. After 1-hour incubation, protein Inhibitor Cocktail (eBioscience) was added to every well and plate was incubated overnight.
On day 13, cells were stained for intracellular flow cytometry analysis. The cells were washed with PBS and stained with Live/Dead Fixable Aqua Dead Cell stain (Thermo-Fisher). Following the live/dead stain, cells were blocked using Biotin-Free Fe Receptor Blocker (Accurate Chemical & Scientific Corp). Extracellular cellular flow panel (1 μL/antibody per well in 50 μL) consisted of CD3 PerCP-Cy5.5 (Biolegend), CD4 BV421 (Biolegend), and CD8 APC-Cy7 (Biolegend). After extracellular staining, cells were fixed using Foxp3/Transcription Factor Staining Buffer Set (eBioscience) and stained for intracellular proteins (1:50 dilution) using TNFα FITC (R&D Systems) and IFNγ BV785 (Biolegend). Cells were washed and resuspended in stain buffer and analyzed using a BD Celesta flow cytometer.
Flow cytometry cell staining analysis was completed using FlowJo v10. Cells were gated on live, singlet, CD3+ cells. The CD8+ T cells were analyzed for TNFα/IFNγ expression and the frequency of double positive TNFα/IFNγ CD8+ T cells was recorded. Responses were assessed to be positive when the frequency of double positive TNFα/IFNγ CD8+ T cells due to stimulation with an experimental peptide was increased greater than or equal to 2-fold over the DMSO only negative control for that patient. Peptides were analyzed in 1 to 7 patient samples.
The 9 mer fragments shown in Table 13 were assessed for their ability to activate T cells using the Patient PBMC restimulation assay described in Example 1 using TNFα and IFNγ production by CD8^+ T cells as a readout. Self-antigens shown in Table 15 were also used in the assays. […] PBMCs from ten patients were evaluated.

HLA-A*24:02 = HLA-A*24:02 (Homo sapiens, UniProt P04439, D101N/D140Y/D185E/E176V/E190D/F33S/G103R/G107R/I119L/I121M/I306V/K335N/L105A/L180Q/L300P/N151K/N90K/Q86E/Q94H/R106L/R138H/R89G/T104I/T345S/V100E/W191G/Y123F); test: In vitro binding of neoantigens to class I MHC (UV peptide exchange, HLA class I ELISA); settings: 100% = same binding affinity as positive control peptide
Protocol: (§1) In Vitro Binding of Neoantigens to Class I MHC
(§2) The 9 mer peptides identified by bioinformatics analysis were analyzed for their binding propensities to 6 common HLA class I alleles (HLA-A*01:01, A*02:01, A*03:01, A*24:02, B*07:02, B*08:01). The principle of the method is briefly described below and consists of two parts, one involving exchange of peptide with a positive control induced by Ultraviolet (UV) radiation, and the second is an enzyme immunoassay to detect stable HLA-peptide and empty HLA complexes.
(§3) HLA-bound peptides are critical for the stability of the HLA complex.
(§4) The exchange efficiency between the peptide of interest and Pos was analyzed using an HLA class I ELISA. The combined technologies allowed the identification of ligands for an HLA molecule of interest which are potentially immunogenic.
(§5) The UV control represented UV-irradiation of conditional HLA class I complex in the absence of a rescue peptide. […] To this end streptavidin was bound onto polystyrene microtiter wells. After washing and blocking, HLA complex present in exchange reaction mixtures or ELISA controls was captured by the streptavidin on the microtiter plate via its biotinylated heavy chain. Non-bound material was removed by washing. Subsequently, horseradish peroxidase (HRP)-conjugated antibody to human B2M was added. […] In the latter case B2M was removed during the washing step. After removal of non-bound HRP conjugate by washing, a substrate solution was added to the wells. A coloured product formed in proportion to the amount of intact HLA complex present in the samples. After the reaction was terminated by the addition of a stop solution, absorbance was measured in a microtiter plate reader. […] Suboptimal HLA binding of peptides with a moderate to low affinity for HLA class I molecules can also be detected by this ELISA technique (Rodenko, B et al. (2006) Nature Protocols 1: 1120-32).
(§6) Binding of select neoepitopes to HLA-A*01:01, HLA-A* 02:01, HLA-A* 03:01, HLA-A*24:02, HLA-1B*07:02 and HLA-1B*08:01 was evaluated using the assay described in Example 1. […] As a criterion for further evaluation, peptides with an exchange rate of at least 10% with the corresponding Pos peptide for at least one of the 6 HLA alleles that we considered for further evaluation. […] Higher percentages correspond to stronger binding to the HLA allele.

HLA-A*01:01 = HLA-A*01:01 (Homo sapiens, UniProt P04439, A114D/A174V/A182V/D101N/D185E/E176A/E190D/L180R/Q94H/R68K/S129P/T187R/V100A/V91M/W191G); test: as above; settings: 100% = same binding affinity as positive control peptide
Protocol: as §1, §2, §3, §4, §5, §6

HLA-B*07:02 = HLA-B*07:02 (Homo sapiens, UniProt P01889); test: as above; settings: 100% = same binding affinity as positive control peptide
Protocol: as §1, §2, §3, §4, §5, §6

HLA-A*03:01 = HLA-A*03:01 (Homo sapiens, UniProt P04439); test: as above; settings: 100% = same binding affinity as positive control peptide
Protocol: as §1, §2, §3, §4, §5, §6

HLA-A*02:01 = HLA-A*02:01 (Homo sapiens, UniProt P04439, D140Y/D185E/D98H/E176V/E277Q/G131W/G231S/I119V/I121R/I166T/I218V/L300P/L318F/N151K/N90K/P208A/P217A/Q86G/Q94H/R138H/R169H/T345S); test: as above; settings: 100% = same binding affinity as positive control peptide
Protocol: as §1, §2, §3, §4, §5, §6

CYLRRQKRLKCEKQPGA (listed as Homo sapiens) [Neoantigen P60, FOXA1.p.F266L]
Maximum fold change over [1]: 2.08 | Maximum frequency of TNFα+IFNγ+CD8+ T cells [1]: 0.340 | Exchange rate with Pos peptide, HLA-A*24:02 (HLA-A*24:02): 0.9% | Exchange rate with Pos peptide, HLA-A*01:01 (HLA-A*01:01): 3.1% | Exchange rate with Pos peptide, HLA-B*07:02 (HLA-B*07:02): 6.1% | Exchange rate with Pos peptide, HLA-A*03:01 (HLA-A*03:01): 36.6% | Exchange rate with Pos peptide, HLA-A*02:01 (HLA-A*02:01): 7.9%

DDRNTFDIVWWCPMSRLRLALTVPPSTTTTCVTVPAWAA [P46] (listed as Homo sapiens) [Neoantigen P46, TP53 (R213D)]
Maximum fold change over [1]: 2.33 | Maximum frequency of TNFα+IFNγ+CD8+ T cells [1]: 0.140 | Exchange rate with Pos peptide, HLA-A*24:02 (HLA-A*24:02): −0.4% | Exchange rate with Pos peptide, HLA-B*07:02 (HLA-B*07:02): 64.8% | Exchange rate with Pos peptide, HLA-A*03:01 (HLA-A*03:01): 10.3% | Exchange rate with Pos peptide, HLA-A*02:01 (HLA-A*02:01): 14.4%

DSSGNLLERNSFEVRV (listed as Homo sapiens) [Neoantigen P73, TP53 (G266E)]
Maximum fold change over [1]: 2.97 | Maximum frequency of TNFα+IFNγ+CD8+ T cells [1]: 0.110 | Exchange rate with Pos peptide, HLA-A*24:02 (HLA-A*24:02): 0.5% | Exchange rate with Pos peptide, HLA-A*01:01 (HLA-A*01:01): 2.1% | Exchange rate with Pos peptide, HLA-B*07:02 (HLA-B*07:02): 8.7% | Exchange rate with Pos peptide, HLA-A*03:01 (HLA-A*03:01): 3.5% | Exchange rate with Pos peptide, HLA-A*02:01 (HLA-A*02:01): 89.2%

GVPGDSTRRAVRRMNTF [P17] (listed as Homo sapiens) [Neoantigen P17, MSMB-NOCA4]
Maximum frequency of TNFα+IFNγ+CD8+ T cells [1]: 0.130 | Exchange rate with Pos peptide, HLA-A*24:02 (HLA-A*24:02): 0.1% | Exchange rate with Pos peptide, HLA-A*01:01 (HLA-A*01:01): 4.9% | Exchange rate with Pos peptide, HLA-B*07:02 (HLA-B*07:02): 38.7% | Exchange rate with Pos peptide, HLA-A*03:01 (HLA-A*03:01): 3.8%

GYLRMQGLMAQRLLLR (listed as Homo sapiens) [Neoantigen P97, FOXRED2-TXN2]
Maximum fold change over [1]: 4.55 | Maximum frequency of TNFα+IFNγ+CD8+ T cells [1]: 0.160 | Exchange rate with Pos peptide, HLA-A*24:02 (HLA-A*24:02): 0.1% | Exchange rate with Pos peptide, HLA-A*01:01 (HLA-A*01:01): 2.5% | Exchange rate with Pos peptide, HLA-B*07:02 (HLA-B*07:02): 7% | Exchange rate with Pos peptide, HLA-A*03:01 (HLA-A*03:01): 39% | Exchange rate with Pos peptide, HLA-A*02:01 (HLA-A*02:01): 4.6%

LHPDSGNMVENGCYLRR (listed as Homo sapiens) [Neoantigen P59, FOXA1 (F254V)]
Maximum fold change over [1]: 10.75 | Maximum frequency of TNFα+IFNγ+CD8+ T cells [1]: 3.010

LHPQRETFTPRWSGANYWKLAFPVGAEGTFPAAATQRGVVRPA (listed as Homo sapiens) [Neoantigen P27, FAM126B-ORC2]
Maximum fold change over [1]: 3.43 | Maximum frequency of TNFα+IFNγ+CD8+ T cells [1]: 0.430

MAGGVLRRLLCREPDRDGDKGASREETVVPLHIGDPVVLPGIGQCYSALF (listed as Homo sapiens) [Neoantigen P37, TSTD1-F11R]
Maximum fold change over [1]: 3.13 | Maximum frequency of TNFα+IFNγ+CD8+ T cells [1]: 1.160

MFENGCYLGRQKRFKCE (listed as Homo sapiens) [Neoantigen P61, FOXAl.p.R261G]
Maximum frequency of TNFα+IFNγ+CD8+ T cells [1]: 0.084 | Exchange rate with Pos peptide, HLA-A*24:02 (HLA-A*24:02): 90.3% | Exchange rate with Pos peptide, HLA-A*01:01 (HLA-A*01:01): 1.7% | Exchange rate with Pos peptide, HLA-A*03:01 (HLA-A*03:01): 2.1% | Exchange rate with Pos peptide, HLA-A*02:01 (HLA-A*02:01): 5.8%

MMAEHSVHVPKILSGK (MMAEIISVHVPKILSGK; listed as Homo sapiens) [Neoantigen P58, AR (Q903H)]
Maximum frequency of TNFα+IFNγ+CD8+ T cells [1]: 5.370 | Exchange rate with Pos peptide, HLA-A*24:02 (HLA-A*24:02): 0.2% | Exchange rate with Pos peptide, HLA-A*01:01 (HLA-A*01:01): 2.5% | Exchange rate with Pos peptide, HLA-A*03:01 (HLA-A*03:01): 32.5% | Exchange rate with Pos peptide, HLA-A*02:01 (HLA-A*02:01): 11.8%

NSKMALNSLNSIDDAQLTRIAPPRSHCCFWEVNAP (listed as Homo sapiens) [Neoantigen P35, TMPRSS2-ERG]
Maximum fold change over [1]: 2.67 | Maximum frequency of TNFα+IFNγ+CD8+ T cells [1]: 0.064

PKSEVRAKCKFSILNAK (listed as Homo sapiens) [Neoantigen P56, SPOP (F102C)]
Maximum fold change over [1]: 11.57 | Maximum frequency of TNFα+IFNγ+CD8+ T cells [1]: 1.620 | Exchange rate with Pos peptide, HLA-A*24:02 (HLA-A*24:02): 0.5% | Exchange rate with Pos peptide, HLA-A*01:01 (HLA-A*01:01): 2.6% | Exchange rate with Pos peptide, HLA-B*07:02 (HLA-B*07:02): 82.5% | Exchange rate with Pos peptide, HLA-A*03:01 (HLA-A*03:01): 6.8% | Exchange rate with Pos peptide, HLA-A*02:01 (HLA-A*02:01): 8.4%

QMAVIQYSCMGLMVFAM (listed as Homo sapiens) [Neoantigen P50, AR (W742C)]
Maximum fold change over [1]: 5.14 | Maximum frequency of TNFα+IFNγ+CD8+ T cells [1]: 0.190

B1: VFFKRAAEGFFRMNKLKESSDTNPKPYCMAAPMGLTENNRNRKKSYRETNLKAVSWPLNHT [P77] (peptide, listed as Homo sapiens)
chain: VFFKRAAEGFFRMNKLKESSDTNPKPYCMAAPMGLTENNRNRKKSYRETNLKAVSWPLNHT
notes: AR-V3
Maximum fold change over [1]: 3.24 | Maximum frequency of TNFα+IFNγ+CD8+ T cells [1]: 0.160 | Immunogenic ([1]; patient PBMC restimulation, CD8+ T cells): Yes
